Experimental data reported in publication PMC8396344, “Palmitoylation of Prolactin-Releasing Peptide Increased Affinity for and Activation of the GPR10, NPFF-R2 and NPFF-R1 Receptors: In Vitro Study” (International Journal of Molecular Sciences, 2021).
Read-outs that look alike come from different tables or passages of the source. Starred links: 1 amine or outer side, 2 acyl side, 3 side chain; linkers in the order of their positions; H or OH if unused. Non-standard residues stand in square brackets, D forms with d. Groups on a side chain read outwards from the residue. No end group written: not given here. *: point of attachment. γGlu = O=C(O)[C@H](CCC(=O)[*:2])N[*:1]; Palmitoyl = CCCCCCCCCCCCCCCC(=O)*; NMeF = CN[C@@H](Cc1ccccc1)C(=O)O; 125I = [125I]*

Tests used:
[1] = target: T1, kappa-opioid receptor (UniProt P41145 1-380)
[2] = target: T2, GPR10 (human, UniProt P49683 1-370)
T2 sequence (looked up): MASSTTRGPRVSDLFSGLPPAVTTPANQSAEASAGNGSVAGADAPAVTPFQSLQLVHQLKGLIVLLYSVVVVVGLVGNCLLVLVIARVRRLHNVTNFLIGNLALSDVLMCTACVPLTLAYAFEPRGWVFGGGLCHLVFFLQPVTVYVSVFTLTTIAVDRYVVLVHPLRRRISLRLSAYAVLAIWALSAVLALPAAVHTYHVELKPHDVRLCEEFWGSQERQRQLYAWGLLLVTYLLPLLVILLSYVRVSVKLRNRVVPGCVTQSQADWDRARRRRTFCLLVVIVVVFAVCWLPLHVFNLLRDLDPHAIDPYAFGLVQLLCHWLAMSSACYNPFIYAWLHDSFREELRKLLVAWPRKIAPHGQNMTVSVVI

[3] = target: T3, neuropeptide Y receptor Y5 (UniProt Q15761 1-445)
T3 sequence (looked up): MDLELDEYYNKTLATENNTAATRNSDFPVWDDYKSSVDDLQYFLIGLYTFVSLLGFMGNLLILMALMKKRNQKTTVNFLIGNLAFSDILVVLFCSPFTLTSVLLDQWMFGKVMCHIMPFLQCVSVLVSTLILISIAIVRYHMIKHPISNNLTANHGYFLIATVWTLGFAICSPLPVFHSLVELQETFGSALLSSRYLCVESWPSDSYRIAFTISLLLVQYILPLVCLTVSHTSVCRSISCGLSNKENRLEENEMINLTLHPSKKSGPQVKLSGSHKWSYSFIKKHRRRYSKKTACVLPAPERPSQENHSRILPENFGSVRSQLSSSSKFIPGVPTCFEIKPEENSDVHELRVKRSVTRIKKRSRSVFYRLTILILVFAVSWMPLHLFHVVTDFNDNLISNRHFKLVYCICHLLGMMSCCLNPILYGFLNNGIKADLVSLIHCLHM

[4] = target: T4, ghrelin receptor (UniProt Q92847 1-366)
[5] = target: T5, neuropeptide Y receptor Y2 (UniProt P49146 1-381); assay: radioligand binding; competition with 0.1 nM [^125I]-PYY on U2OS cells with Y1, Y2 or Y5; 25 mM HEPES, 120 mM NaCl, 5 mM MgCl2, 4.7 mM KCl, 1 mM CaCl2, 0.5% BSA, 2 g/L glucose; peptides 10^-12 to 10^-5 M; 60 min at RT; Ki by the Cheng-Prusoff equation
T5 construct: receptor of NPY, Y2; source: U2OS cells stably expressing the receptor, bought: Thermo Fisher Scientific; on cells
T5 sequence (looked up): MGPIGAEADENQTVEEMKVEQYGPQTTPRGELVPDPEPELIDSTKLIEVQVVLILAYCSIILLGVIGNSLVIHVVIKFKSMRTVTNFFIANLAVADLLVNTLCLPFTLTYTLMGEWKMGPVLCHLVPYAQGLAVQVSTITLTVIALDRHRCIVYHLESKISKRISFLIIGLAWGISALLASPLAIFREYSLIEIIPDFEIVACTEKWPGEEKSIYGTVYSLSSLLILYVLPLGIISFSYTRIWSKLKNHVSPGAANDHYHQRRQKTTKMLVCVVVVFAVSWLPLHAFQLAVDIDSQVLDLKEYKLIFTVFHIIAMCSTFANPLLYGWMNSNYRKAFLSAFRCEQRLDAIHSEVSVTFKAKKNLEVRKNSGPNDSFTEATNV

[6] = target: T1, kappa-opioid receptor; assay: radioligand binding; saturation with [^125I]-dynorphin on KOR
[7] = target: T4, ghrelin receptor; assay: radioligand binding; saturation with [^125I]-ghrelin on GHSR
[8] = target: T1, kappa-opioid receptor; assay: cell-based or functional assay
[9] = target: T2, GPR10; assay: cell-based or functional assay
[10] = target: T3, neuropeptide Y receptor Y5; assay: cell-based or functional assay
[11] = target: T4, ghrelin receptor; assay: cell-based or functional assay
[12] = target: T1, kappa-opioid receptor; assay: radioligand binding; competition with [^125I]-dynorphin A on plasma membranes of CHO-K1 cells with KOR, 5 µg protein/tube; 50 mM Tris-HCl pH 7.4, 60 mM NaCl, 1 mM MgCl2, 0.5% BSA; 60 min at RT; filtration; Ki by the Cheng-Prusoff equation; settings: one partner purified
[13] = target: T2, GPR10; assay: radioligand binding; competition with [^125I]-PrRP31 on CHO-K1 cells expressing human GPR10; Ki by the Cheng-Prusoff equation; settings: one partner purified
[14] = target: T4, ghrelin receptor; assay: radioligand binding; competition with 0.1 nM [^125I]-ghrelin on U2OS cells stably expressing GHSR; 50 mM Tris-Cl pH 7.4, 118 mM NaCl, 5 mM MgCl2, 4.7 mM KCl, 0.1% BSA; peptides 10^-12 to 10^-5 M; 60 min at RT; Ki by the Cheng-Prusoff equation; settings: one partner purified
[15] = target: T3, neuropeptide Y receptor Y5; assay: radioligand binding; competition with 0.1 nM [^125I]-PYY on U2OS cells with Y1, Y2 or Y5; 25 mM HEPES, 120 mM NaCl, 5 mM MgCl2, 4.7 mM KCl, 1 mM CaCl2, 0.5% BSA, 2 g/L glucose; peptides 10^-12 to 10^-5 M; 60 min at RT; Ki by the Cheng-Prusoff equation; settings: one partner purified
[16] = target: T6, neuropeptide Y receptor Y1 (UniProt P25929 1-384); assay: as above; settings: one partner purified
T6 construct: receptor of NPY, Y1; source: U2OS cells stably expressing the receptor, bought: Thermo Fisher Scientific; on cells
T6 sequence (looked up): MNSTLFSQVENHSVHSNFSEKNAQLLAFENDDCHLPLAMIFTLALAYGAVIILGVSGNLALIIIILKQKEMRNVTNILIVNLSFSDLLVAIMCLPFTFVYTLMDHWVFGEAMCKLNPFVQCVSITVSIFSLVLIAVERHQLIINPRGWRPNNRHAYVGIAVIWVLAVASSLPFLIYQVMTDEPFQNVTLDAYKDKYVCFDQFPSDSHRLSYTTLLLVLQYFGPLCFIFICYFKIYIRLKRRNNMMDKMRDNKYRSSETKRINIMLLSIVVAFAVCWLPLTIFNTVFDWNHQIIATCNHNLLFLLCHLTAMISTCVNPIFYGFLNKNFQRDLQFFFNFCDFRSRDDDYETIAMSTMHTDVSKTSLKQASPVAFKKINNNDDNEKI

[17] = target: T7, NPFF-R1 (UniProt Q9GZQ6 1-430); assay: radioligand binding; competition with [^125I]-1DMe on plasma membranes of CHO-K1 cells with NPFF-R2 or NPFF-R1, 5 µg protein/tube; 50 mM Tris-HCl pH 7.4, 60 mM NaCl, 1 mM MgCl2, 0.5% BSA; 60 min at RT; filtration; Ki by the Cheng-Prusoff equation; settings: one partner purified
T7 construct: also called NPFF-1R; source: CHO-K1 cell line, bought: Perkin Elmer

[18] = target: T8, NPFF-R2 (UniProt Q9Y5X5 1-522); assay: as above; settings: one partner purified
T8 construct: also called NPFF-2R; source: CHO-K1 cell line (AequoScreen), bought: Perkin Elmer

[19] = target: T7, NPFF-R1; assay: radioligand binding; saturation with [^125I]-1DMe on membranes from CHO-K1 cells expressing NPFF-R1; settings: one partner purified

Molecule Palm-PrRP31 (peptide) has an EC50, agonist mode, β-lactamase reporter assay [1] of over 10000 nM, an EC50, agonist mode, β-lactamase reporter assay [2] of 0.0718 nM and an EC50, agonist mode, β-lactamase reporter assay [3] of 56.5 nM. The EC50, agonist mode, β-lactamase reporter assay [4] was 1270 nM and the Ki [5] was over 10000 nM.

Work on [^125I]-dynorphin A (peptide) yielded a Kd [6] of 2.38 nM.

Work on [^125I]-ghrelin (peptide) yielded a Kd [7] of 0.44 nM.

B1: Palm^11-PrRP31 (peptide)
peptide: SRTHRHSMEIK([γGlu-Palmitoyl])TPDINPAWYASRGIRPVGRF-NH2
notes: analog of human PrRP31 with Arg11 replaced by Lys11 that carries palmitic acid through a gamma-Glu linker; numbers count on: the peptide PrRP31; source: synthetic peptide, palmitoylated on resin, purified (HPLC, purity greater than 95%)
With B1 the “EC50, agonist mode, β-lactamase reporter assay” value (from here on “EC50, agonist mode”) [8] was over 10000 nM, the “EC50, agonist mode” value [9] was 0.0391 nM and the “EC50, agonist mode” value [10] was 583 nM. For the same molecule, the “EC50, agonist mode” value [11] was 1070 nM, the Ki [12] was 4280 nM and the Ki [13] was 3.44 nM. The Ki [14] was 2800 nM, the Ki ([5]; one partner purified) was over 10000 nM and the Ki [15] was 362 nM. It also gave a Ki [16] of over 10000 nM, a Ki [17] of 13.5 nM and a Ki [18] of 7.66 nM.

B2: [^125I]-1DMe (peptide)
peptide: [dY](125I)L[NMeF]QPQRF-NH2
notes: 1DMe iodinated at D-Tyr1; numbers count on: the peptide
B2 was tested, and the Kd [19] was 0.94 nM.
